Test results as given in patent publication US20190225675A1 (TUFTS UNIVERSITY, published 2019).
Where two headings read alike, the source gives them in different places.

How the values were obtained:
[1] = molecular target: T1, Shiga-like toxin 2 (Stx2) (UniProt P09385 23-319; P09386 20-89)
T1 sequence 1: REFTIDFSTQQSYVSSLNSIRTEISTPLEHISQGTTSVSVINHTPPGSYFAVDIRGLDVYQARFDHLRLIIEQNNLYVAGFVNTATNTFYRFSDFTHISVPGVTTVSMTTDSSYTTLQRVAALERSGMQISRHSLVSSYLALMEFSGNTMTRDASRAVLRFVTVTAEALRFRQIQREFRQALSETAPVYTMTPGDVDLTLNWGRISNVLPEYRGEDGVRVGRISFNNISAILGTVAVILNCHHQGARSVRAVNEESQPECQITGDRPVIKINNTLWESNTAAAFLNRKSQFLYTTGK
T1 sequence 2: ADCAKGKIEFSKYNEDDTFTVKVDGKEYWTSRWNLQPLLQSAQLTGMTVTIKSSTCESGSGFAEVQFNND

[2] = molecular target: T1, Shiga-like toxin 2 (Stx2); remark: listed apart in the source
[3] = molecular target: T1, Shiga-like toxin 2 (Stx2); remark: listed apart in the source
[4] = molecular target: T1, Shiga-like toxin 2 (Stx2); remark: listed apart in the source
[5] = molecular target: T2, Clostridium difficile toxin A (TcdA) (Clostridium difficile, UniProt P16154 1-2710); experiment: ELISA on plates coated with TcdA, HRP-conjugated detection antibody, A450
T2 construct: mature

[6] = molecular target: T3, Clostridium difficile toxin B (TcdB) (Clostridium difficile, UniProt P18177 2-2366); experiment: ELISA, toxin-coated plates, HRP-conjugated detection antibody
T3 construct: mature

[7] = molecular target: T4, Botulinum neurotoxin serotype A1 (BoNT/A) holotoxin (Clostridium botulinum, UniProt P0DPI0 2-1296); experiment: method not stated
T4 construct: mature

[8] = molecular target: anthrax protective antigen (PA) (Bacillus anthracis, UniProt P13423 30-764); experiment: legend of FIG. 29A: VHHs identified that bind each target as indicated
[9] = molecular target: T4, Botulinum neurotoxin serotype A1 …; experiment: VHH selection; binding competition

anthrax protective antigen (PA), sequence (P13423 30-764 limits assumed): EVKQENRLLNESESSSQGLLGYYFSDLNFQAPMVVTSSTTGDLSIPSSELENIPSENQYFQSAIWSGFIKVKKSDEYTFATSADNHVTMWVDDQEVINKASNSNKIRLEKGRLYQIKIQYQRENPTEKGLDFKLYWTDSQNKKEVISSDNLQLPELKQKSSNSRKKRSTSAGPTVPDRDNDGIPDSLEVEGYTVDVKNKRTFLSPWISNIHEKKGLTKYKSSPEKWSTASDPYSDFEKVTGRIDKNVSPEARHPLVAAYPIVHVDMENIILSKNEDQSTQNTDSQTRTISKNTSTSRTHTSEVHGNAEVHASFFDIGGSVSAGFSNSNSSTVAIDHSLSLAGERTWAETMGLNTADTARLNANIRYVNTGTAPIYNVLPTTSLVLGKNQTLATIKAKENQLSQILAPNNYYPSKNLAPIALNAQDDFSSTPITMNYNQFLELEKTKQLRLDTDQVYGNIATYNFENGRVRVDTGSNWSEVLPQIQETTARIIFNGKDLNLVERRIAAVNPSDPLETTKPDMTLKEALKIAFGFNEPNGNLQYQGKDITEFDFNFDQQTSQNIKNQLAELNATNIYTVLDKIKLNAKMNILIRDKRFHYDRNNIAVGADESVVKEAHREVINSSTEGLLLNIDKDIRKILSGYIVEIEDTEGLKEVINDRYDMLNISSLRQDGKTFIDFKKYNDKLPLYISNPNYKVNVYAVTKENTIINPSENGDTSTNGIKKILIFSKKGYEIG
T3 sequence (P18177 2-2366): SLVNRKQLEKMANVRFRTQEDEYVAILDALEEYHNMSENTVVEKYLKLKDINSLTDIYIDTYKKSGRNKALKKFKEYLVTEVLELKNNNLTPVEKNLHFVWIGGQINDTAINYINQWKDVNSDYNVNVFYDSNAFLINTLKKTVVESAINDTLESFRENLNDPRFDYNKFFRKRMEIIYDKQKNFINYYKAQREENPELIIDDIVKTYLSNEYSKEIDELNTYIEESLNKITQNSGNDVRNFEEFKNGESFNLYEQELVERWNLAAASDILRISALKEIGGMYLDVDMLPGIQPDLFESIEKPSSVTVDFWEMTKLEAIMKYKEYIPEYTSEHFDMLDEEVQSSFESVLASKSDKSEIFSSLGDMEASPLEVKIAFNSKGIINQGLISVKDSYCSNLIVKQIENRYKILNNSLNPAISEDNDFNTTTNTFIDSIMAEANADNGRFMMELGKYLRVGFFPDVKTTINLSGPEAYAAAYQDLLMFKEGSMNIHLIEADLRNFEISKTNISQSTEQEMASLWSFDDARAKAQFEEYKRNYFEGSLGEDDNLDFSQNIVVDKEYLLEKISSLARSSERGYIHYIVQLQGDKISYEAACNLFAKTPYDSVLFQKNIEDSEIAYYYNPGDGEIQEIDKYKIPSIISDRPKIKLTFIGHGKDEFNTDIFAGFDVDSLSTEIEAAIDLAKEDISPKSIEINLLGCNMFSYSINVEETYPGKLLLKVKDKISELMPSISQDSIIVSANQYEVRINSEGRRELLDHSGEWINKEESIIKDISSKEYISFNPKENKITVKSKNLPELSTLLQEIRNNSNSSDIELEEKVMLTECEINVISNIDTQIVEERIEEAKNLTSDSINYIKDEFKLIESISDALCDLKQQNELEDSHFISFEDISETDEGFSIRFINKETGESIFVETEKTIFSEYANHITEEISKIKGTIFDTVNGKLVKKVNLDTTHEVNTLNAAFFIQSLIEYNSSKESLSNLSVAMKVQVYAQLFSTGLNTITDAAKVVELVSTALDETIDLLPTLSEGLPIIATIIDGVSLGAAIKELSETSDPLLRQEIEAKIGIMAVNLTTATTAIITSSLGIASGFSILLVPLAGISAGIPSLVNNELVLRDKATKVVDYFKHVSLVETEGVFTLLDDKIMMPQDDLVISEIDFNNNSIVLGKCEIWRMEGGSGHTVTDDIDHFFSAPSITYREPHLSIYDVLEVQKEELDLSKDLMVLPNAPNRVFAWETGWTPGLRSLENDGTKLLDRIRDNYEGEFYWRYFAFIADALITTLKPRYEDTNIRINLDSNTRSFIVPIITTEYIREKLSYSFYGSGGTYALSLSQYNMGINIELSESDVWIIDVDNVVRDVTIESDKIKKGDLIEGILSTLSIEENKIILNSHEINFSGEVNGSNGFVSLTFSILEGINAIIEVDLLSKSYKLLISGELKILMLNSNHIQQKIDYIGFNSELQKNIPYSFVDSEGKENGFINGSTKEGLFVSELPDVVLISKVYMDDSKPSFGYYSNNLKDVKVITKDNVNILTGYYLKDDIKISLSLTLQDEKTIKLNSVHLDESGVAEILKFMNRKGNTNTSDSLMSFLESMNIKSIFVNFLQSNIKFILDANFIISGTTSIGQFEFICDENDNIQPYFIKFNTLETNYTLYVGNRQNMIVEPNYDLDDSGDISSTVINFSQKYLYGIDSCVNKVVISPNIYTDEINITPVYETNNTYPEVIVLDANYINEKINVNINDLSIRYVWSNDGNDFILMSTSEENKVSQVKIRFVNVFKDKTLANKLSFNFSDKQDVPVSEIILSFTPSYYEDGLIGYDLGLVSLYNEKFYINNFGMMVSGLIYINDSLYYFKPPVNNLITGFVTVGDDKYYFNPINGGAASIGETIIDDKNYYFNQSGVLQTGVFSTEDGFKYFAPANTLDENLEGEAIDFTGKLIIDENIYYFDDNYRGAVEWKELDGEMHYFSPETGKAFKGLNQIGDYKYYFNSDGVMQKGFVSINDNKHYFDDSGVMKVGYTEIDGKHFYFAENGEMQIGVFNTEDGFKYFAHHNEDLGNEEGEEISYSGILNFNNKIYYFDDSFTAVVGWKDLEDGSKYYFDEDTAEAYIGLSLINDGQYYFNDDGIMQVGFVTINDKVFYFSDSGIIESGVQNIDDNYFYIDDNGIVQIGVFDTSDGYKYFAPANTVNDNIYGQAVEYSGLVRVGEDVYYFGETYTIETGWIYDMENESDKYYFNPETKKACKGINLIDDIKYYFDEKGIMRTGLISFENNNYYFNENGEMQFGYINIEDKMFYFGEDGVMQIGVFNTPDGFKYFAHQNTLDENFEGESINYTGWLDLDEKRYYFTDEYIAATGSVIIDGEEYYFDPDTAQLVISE

B1: Stx-A4 (VHH)
VHH: SGGGLVQPGGSLRLSCAASGFTLGSYHIGWFRHPPGKEREGTSCLSSRGDYTKYAEAVKGRFTISRDNTKSTVYLQMNNLKPEDTGIYVCAAIRPVLSDSHCTLAARYNYWGQGTQVTVSS
Q: With B1 as the binder, how does the “EC50 (read off the curve)” value [1] read?
A: ~8000 pM

B2: Stx-A5 (VHH)
VHH: SGGGLVQPGGSLRLSCAALEFTLEDYAIAWFRQAPGKEREGVSCISKSGVTKYTDSVKGRFTVARDNAKSTVILQMNNLRPEDTAVYNCAAVRPVFVDSVCTLATRYTYWGEGTQVTVSS
Q: B2 was tested. Which “EC50 (read off the curve)” value [1] did it give?
A: ~800 pM

Q: And the “EC50 (read off the curve)” value [2]?
A: ~800 pM

Q: And the “EC50 (read off the curve)” value [3]?
A: ~800 pM

B3: Stx2-D10 (VHH)
VHH: TGGLVQAGGSLRLSCAASGVPFSDYTMAWFRQAPGKEREVVARITWRGGGPYYGNSGNGRFAISRDIAKSMVYLHMDSLKPEDTAVYYCAASRLRPALASMASDYDYWGQGTQVSVSS
Q: With B3 as the binder, how does the “EC50 (read off the curve)” value [2] read?
A: ~300 pM

Q: And the “EC50 (read off the curve)” value [4]?
A: ~300 pM

B4: Stx2-G1 (VHH)
VHH: SGGGLVQPGESLRLSCVASASTFSTSLMGWVRQAPGKGLESVAEVRTTGGTFYAKSVAGRFTISRDNAKNTLYLQMNSLKAEDTGVYYCTAGAGPIATRYRGQGTQVTVSS
Q: For B4, which “EC50 (read off the curve)” value [4] is on record?
A: ~100 pM

Q: And the “EC50 (read off the curve)” value [3]?
A: ~100 pM

B5: VNA-TcdA (toxin A binding heterodimer, AH3+AA6) (bispecific antibody)
chain: QGVQSQLQLVESGGGLVQPGGSLRLSCAASGFTLDYSSIGWFRQAPGKEREGVSCISSSGDSTKYADSVKGRFTTSRDNAKNTVYLQMNSLKPDDTAVYYCAAFRATMCGVFPLSPYGKDDWGKGTLVTVSSEPKTPKPQGGGGSGGGGSGGGGSQGVQSQVQLVESGGGLVQPGGSLRLSCAASGFTFSDYVMTWVRQAPGKGPEWIATINTDGSTMRDDSTKGRFTISRDNAKNTLYLQMTSLKPEDTALYYCARGRVISASAIRGAVRGPGTQVTVSSEPKTPKPQ
Q: How did the “EC50 (read off the curve)” value [5] turn out when B5 was run?
A: ~2000 pM

Q: Does B5 bind [6]?
A: no binding (tested: up to 125 nM)

B6: scFv#7 (scFv)
scFv: SYELTQPPSMSVALGQTAKVTCQGDNLENFYVQWHQQKPGQAPVTVIFQDNKRPSGIPDRFSGSNSGNTATLTISGARTEDEADYYCQSGHSSIGGVFGSGTSLTVLGQPAAAGGGGSGGGGSGGGGSARQVQLQESGPSLVKPSQTLSLTCTVSGFSLTGNSVTWVRQAPGNVPEWLGGISRGGRTYYDTALKSRLSITRDTSKRQVSLSLSSVTTEDTAMYFCARSAYSTLYDYEYAADIYDWGPGLLVTVSSTSGAPVPYPDPLEPRAA
Q: B6 was tested. Which Kd [7] did it give?
A: ~1000 pM

B7: JHD-B6 (VHH)
VHH: QVQLVESGGGLVQPGGSLRLSCAASGSSFSRYAMRWYRQAPGKQRELVANINSRGTSNYADSVKGRFTISRDNAKNTVYLQMNSLKPEDTAVYYCNAEWLGRSEPSWGQGTQVTVSS
Q: Does B7 bind [8]?
A: binds

B8: JHE-D9 (VHH)
VHH: QVQLVESGGGLVQPGGSLRLSCAASGFIFSLYTMRWHRQAPGKERELVATITSATGITNYADSVKGRFIISRDDAKKTGYLQMNSLKPEDTAVYYCNAVRTTVSRDYWGQGTQVTVSS
Q: Does B8 bind [8]?
A: binds

B9: JIJ-A12 (VHH)
VHH: QVQLVESGGGLVQPGGSLRLSCAASGIIFSIYTMGWYRQAPGKQRELVAAIPSGPSANATDSVGGRFTITRDNAENTVYLQMNDLKPEDTAVYYCNARRGPGIKNYWGQGTQVTVSS
Q: Does B9 bind [8]?
A: binds

B10: JIJ-B8 (VHH)
VHH: QVQLVESGGGLVQPGGSLSVSCAASGSIARPGAMAWYRQAPGKERELVASITPGGLTNYADSVTGRFTISRDNAKRTVYLQMNSLQPEDTAVYYCHARIIPLGLGSEYRDHWGQGTQVTVSS
Q: Does B10 bind [8]?
A: binds

B11: JIJ-C11 (VHH)
VHH: QVQLVETGGGLVQPGGSLGLSCVVASGRSINNYGMGWYRQAPGKQRELVAQISSGGTTNYAGSVEGRFTISRDNVKKMVYLQMNSLKPEDTAVYYCNSLLRTFSWGQGTQVTVSS
Q: Does B11 bind [8]?
A: binds

B12: JIK-B8 (VHH)
VHH: QVQLVESGGGLVQPGGSLGLSCVVASERSINNYGMGWYRQAPGKQRELVAQISSGGTTNYADSVEGRFTISRDNVKKMVHLQVNSLKPEDTAVYYCNSLLRTFSWGQGTQVTVSS
Q: Does B12 bind [8]?
A: binds

B13: JIJ-D3 (VHH)
VHH: QVQLVETGGLVQPGGSLRLSCAASGLTFSSTAMAWFRQAPGKEREFVARISGAGITIYYSDSVKDRFTISRNNVENTVYLQMNSLKTEDTAVYYCAARRNTYTSDYNIPARYPYWGQGTQVTVSS
Q: Does B13 bind [8]?
A: binds

B14: JIJ-E9 (VHH)
VHH: QVQLVETGGLVQPGGSLRLSCAASRSTTATIYSMNWYRQAPGKQRELVAGMTSDGQTNYATSVKGRFTISRDNAKNTVYLLMNSLKLEDTAVYYCYVKPWRLQGWDYWGQGTQVTVSS
Q: Does B14 bind [8]?
A: binds

B15: JIJ-F11 (VHH)
VHH: QVQLVESGGGLVQPGGSLRLSCAAPESIVNSRTMAWYRQAPGKQRERVATITTAGSPNYADSVKGRFAISRDNAKNTVYLQMNSLKPEDTAVYYCNTLLSTLPYGQGTQVTVSS
Q: Does B15 bind [8]?
A: binds

B16: JIK-B10 (VHH)
VHH: QVQLVETGGGLVQPGGSLRLSCAASGFTFSSYRMSWYRQAAGKERDVVATITANGVPTGYADSVMGRFTISRDNAKNTVYLEMNSLNPEDTAVYYCNAPRLHTSVGYWGQGTQVTVSS
Q: Does B16 bind [8]?
A: binds

B17: JIK-B12 (VHH)
VHH: QVQLVESGGGLVQAGNSLRLSCTASGVIFSIYTMGWFRQAPGKEREFVAAIGVADGTALVADSVTGRFTISRDNAKNTVYLHMNSLKPEDTAVYSCAAYLSPRVQSPYITDSRYQLWGQGTQVTVSS
Q: Does B17 bind [8]?
A: binds

B18: JIK-F4 (VHH)
VHH: TGGGLVQAGGSLRLSCAASGRYAMGWFRQAPGKEREFVATISRSGAIREYADSVKGRFTISRDGAENTVYLEMNSLKPDDTAIYVCAEGRGATFNPEYAYWGQGTQVTVSS
Q: Does B18 bind [8]?
A: binds

B19: JDO-E9 (VHH)
VHH: QVQLVESGGGLVRPGGSLRLSCVVSGFAYEMPMMGWYRQAPGNQRELVATIGTGGRMNYADSVKGRFTISRDNAKNTVYLQMNSLKPEDTAAYYCKIEFTNYWGQGTQVTVSS
Q: Does B19 bind [9]?
A: binds

B20: JDQ-B2 (VHH)
VHH: QVQLVESGGGLVQPGGSLRLSCTVSGSIFDLPGMNWYRQAPGAQRELVADISSDGRRTNYADSVKGRFTMSRDNAKKTVYLQMDSLKPDDTAVYYCNVKFTHHWGQGIQVTVSS
Q: Does B20 bind [9]?
A: binds

B21: JDQ-C5 (VHH)
VHH: QVQLVESGGGLVQPGGSLRLSCTVSGSIFGLPGMSWYRQAPGAQRELVADISSDGGRTHYADSVKGRFTISRDNDKKTVYLQMDSLKPDDTAVYYCNVKFTHHWGQGIQVTVSS
Q: Does B21 bind [9]?
A: binds

B22: JDQ-F9 (VHH)
VHH: QVQLVESGGGLVQDGGSLRLSCTTSGSIDSFNAIEWYRQAPGKQRELVASISSDGRRTNYADSVKGRFTISGDNAKNTVYLQMNSLKPEDTAVYYCHRPFTHYWGQGTQVTVSS
Q: Does B22 bind [9]?
A: binds
